Results taken from the supplement of paper PMC10567573.

B1: CDC25A (parent)
chain: KKFRTKSRTWAGEKSKREMYSRLK

Variants of: B1
Test: protein stability index of a GFP-peptide fusion (GPS, HEK-293T) (PSI 1-6); higher = more stable
Conditions: c terminus: a fixed tail appended
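Further: lentivirally expressed fusions sorted by FACS into six bins by GFP to DsRed ratio, PSI derived from sequencing read proportions per bin multiplied by bin number.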

Protein stability index, by site and new letter:
S21: R 2.73, Y 2.01, D 2.95, A 2.97, M 3.36, N 3.21, F 2.7, H 2.69
K16: I 2.28, Q 3.71, S 3.04, W 2.1, N 3, D 3.24, G 2.79, L 3.16, R 1.22, H 3.56, A 2.62, M 3.99, Y 2.38, P 3.11, V 2.78
E13: S 2.97, R 3.63, D 3.61, K 3.49, Q 3.34, H 3.1, F 2.19, G 3.29, L 4.12, Y 3.25, P 3.27, W 3.5, T 3.43, N 2.79, I 3.07
R8: W 4.2, N 3.38, M 2.25, P 3.21, Q 3.37, S 2.7, K 3.31, V 3.32, H 2.84, F 2.88, L 3.86, T 2.95, Y 4.25, I 3.39, E 4.16, D 3.57, A 3.48
S7: M 2.42, V 2.01, G 2.78, C 2.39, Q 2.39, P 3.13, I 2.9, R 3.57, D 3.24, K 3.11, W 3.06, N 3.17, H 3.51, E 2.92, F 2.4, A 3.3
Y20: D 3.35, M 3.29, T 3.41, S 4.69, Q 4.34, F 2.88, W 2.37, P 4.12, I 3.13, L 2.33, V 2.92, H 3.01, N 3.02, K 4.45, C 3.97
M19: E 3.79, T 3, A 3.13, F 3.53, N 4.2, W 2.77, I 2.8, D 4.05, R 3.44, Q 4.14, Y 3.24, S 4.21, H 3.54, P 3.41, L 2.7, K 4.05
R22: V 3.24, T 3.41, Q 2.83, H 3.02, A 2.19, S 2.79, D 2.49, K 2.92, G 3.92, N 3.81, I 2.01, M 3.13, C 3.17, W 2.28, P 2.33, F 2.99, L 2.82
T9: R 2.29, F 3.17, Q 2.67, L 2.74, N 3.55, W 2.79, K 3.48, A 2.79, C 3.12, H 2.29, V 2.55, S 3.31, D 3.54, P 3.12, Y 3
S15: R 2.73, K 3.14, Q 2.38, C 3.4, V 2.52, D 3.3, T 3.88, M 3.2, A 3.72, F 3.34, W 1.3, L 2.58, I 2.45, G 2.52, Y 1.94, H 3.12, N 2.52
G12: S 2.64, E 2.82, I 2.43, M 3.44, T 2.6, L 2.11, Q 2.86, A 3.21, P 3.93, C 2.61, K 2.42, W 2.5, Y 2.61, V 2.64, N 2.26, F 2.68
